Measured values: patent US20240132578A1

Legend:
Assay in all cases: cell-based or functional assay
[1] = molecular target: HIV-1 Env of isolate MGRM-C-017 (subtype C) (HIV-1)
[2] = molecular target: HIV-1 Env of isolate MGRM-G-009 (subtype G), on pseudovirus (HIV-1)
[3] = molecular target: HIV-1 Env of isolate 97ZA012 (subtype C) (HIV-1)
[4] = molecular target: HIV-1 Env of isolate MGRM-G-014 (subtype G), on pseudovirus (HIV-1)
[5] = molecular target: HIV-1 Env of isolate MGRM-C-007 (subtype C) (HIV-1)
[6] = molecular target: HIV-1 Env of isolate MGRM-C-025 (subtype C) (HIV-1)
[7] = molecular target: HIV-1 Env of isolate MGRM-C-022 (subtype C) (HIV-1)
[8] = molecular target: HIV-1 Env of isolate MGRM-G-001 (subtype G), on pseudovirus (HIV-1)
[9] = molecular target: HIV-1 Env of isolate MGRM-G-013 (subtype G), on pseudovirus (HIV-1)
[10] = molecular target: HIV-1 Env of isolate MGRM-G-006 (subtype G), on pseudovirus (HIV-1)
[11] = molecular target: HIV-1 Env of isolate MGRM-C-004 (subtype C) (HIV-1)
[12] = molecular target: HIV-1 JR-CSF Env G471A (HIV-1 JR-CSF) (UniProt P20871)
[13] = molecular target: HIV-1 Env of isolate MGRM-G-017 (subtype G), on pseudovirus (HIV-1)
[14] = molecular target: HIV-1 Env of isolate MGRM-C-019 (subtype C) (HIV-1)
[15] = molecular target: HIV-1 Env of isolate 93MW959 (subtype C) (HIV-1)
[16] = molecular target: HIV-1 Env of isolate MGRM-C-015 (subtype C) (HIV-1)
[17] = molecular target: HIV-1 Env of isolate MGRM-G-019 (subtype G), on pseudovirus (HIV-1)
[18] = molecular target: HIV-1 JR-CSF Env D474A (HIV-1 JR-CSF) (UniProt P20871)
[19] = molecular target: HIV-1 Env of isolate MGRM-C-006 (subtype C) (HIV-1)
[20] = molecular target: HIV-1 Env of isolate MGRM-G-004 (subtype G), on pseudovirus (HIV-1)
[21] = molecular target: HIV-1 Env of isolate MGRM-G-027 (subtype G), on pseudovirus (HIV-1)
[22] = molecular target: HIV-1 Env of isolate MGRM-G-028 (subtype G), on pseudovirus (HIV-1)
[23] = molecular target: HIV-1 Env of isolate MGRM-C-023 (subtype C) (HIV-1)
[24] = molecular target: HIV-1 Env of isolate MGRM-G-024 (subtype G), on pseudovirus (HIV-1)
[25] = molecular target: HIV-1 Env of isolate MGRM-C-005 (subtype C) (HIV-1)
[26] = molecular target: aMLV envelope, on pseudovirus (negative control)
[27] = molecular target: HIV-1 Env of isolate MGRM-C-028 (subtype C) (HIV-1)
[28] = molecular target: HIV-1 Env of isolate MGRM-G-011 (subtype G), on pseudovirus (HIV-1)
[29] = molecular target: HIV-1 Env of isolate MGRM-C-008 (subtype C) (HIV-1)
[30] = molecular target: HIV-1 Env of isolate MGRM-C-027 (subtype C) (HIV-1)
[31] = molecular target: HIV-1 Env of isolate MGRM-C-002 (subtype C) (HIV-1)
[32] = molecular target: HIV-1 Env of isolate MGRM-G-015 (subtype G), on pseudovirus (HIV-1)
[33] = molecular target: HIV-1 Env of isolate MGRM-C-001 (subtype C) (HIV-1)
[34] = molecular target: HIV-1 Env of isolate MGRM-C-012 (subtype C) (HIV-1)
[35] = molecular target: HIV-1 Env of isolate MGRM-C-020 (subtype C) (HIV-1)
[36] = molecular target: HIV-1 Env of isolate MGRM-C-014 (subtype C) (HIV-1)
[37] = molecular target: HIV-1 Env of isolate MGRM-G-025 (subtype G), on pseudovirus (HIV-1)
[38] = molecular target: HIV-1 Env of isolate 98IN022 (subtype C) (HIV-1)
[39] = molecular target: HIV-1 Env of isolate MGRM-C-010 (subtype C) (HIV-1)
[40] = molecular target: HIV-1 Env of isolate MGRM-C-013 (subtype C) (HIV-1)
[41] = molecular target: HIV-1 Env of isolate MGRM-C-026 (subtype C) (HIV-1)
[42] = molecular target: HIV-1 Env of isolate MGRM-C-024 (subtype C) (HIV-1)
[43] = molecular target: HIV-1 Env of isolate MGRM-C-009 (subtype C) (HIV-1)
[44] = molecular target: HIV-1 Env of isolate MGRM-G-016 (subtype G), on pseudovirus (HIV-1)

## PGT-122 (antibody)
[1]
  IC50 (µg/mL), pseudovirus neutralization: 0.015 µg/mL
[2]
  IC50 (µg/mL), neutralization of pseudovirus: 0.514 µg/mL
[3]
  IC50 (µg/mL), pseudovirus neutralization: 0.004 µg/mL
[4]
  IC50 (µg/mL), neutralization of pseudovirus: 0.008 µg/mL
[5]
  IC50 (µg/mL), pseudovirus neutralization: 3.35 µg/mL
[6]
  IC50 (µg/mL), pseudovirus neutralization: 8.69 µg/mL
[7]
  IC50 (µg/mL), pseudovirus neutralization: 0.012 µg/mL
[8]
  IC50 (µg/mL), neutralization of pseudovirus: 0.005 µg/mL
[9]
  IC50 (µg/mL), neutralization of pseudovirus: 3.45 µg/mL
[10]
  IC50 (µg/mL), neutralization of pseudovirus: > 50 µg/mL
[11]
  IC50 (µg/mL), pseudovirus neutralization: 0.02 µg/mL
[12]
  Fold IC50 increase relative to wild-type: 1.8 fold
[13]
  IC50 (µg/mL), neutralization of pseudovirus: 0.032 µg/mL
[14]
  IC50 (µg/mL), pseudovirus neutralization: > 50 µg/mL
[15]
  IC50 (µg/mL), pseudovirus neutralization: 0.016 µg/mL
[16]
  IC50 (µg/mL), pseudovirus neutralization: > 50 µg/mL
[17]
  IC50 (µg/mL), neutralization of pseudovirus: 0.016 µg/mL
[18]
  Fold IC50 increase relative to wild-type: 1.8 fold
[19]
  IC50 (µg/mL), pseudovirus neutralization: 0.018 µg/mL
[20]
  IC50 (µg/mL), neutralization of pseudovirus: 2.15 µg/mL
[21]
  IC50 (µg/mL), neutralization of pseudovirus: 0.606 µg/mL
[22]
  IC50 (µg/mL), neutralization of pseudovirus: 0.01 µg/mL
[23]
  IC50 (µg/mL), pseudovirus neutralization: 0.027 µg/mL
[24]
  IC50 (µg/mL), neutralization of pseudovirus: 0.033 µg/mL
[25]
  IC50 (µg/mL), pseudovirus neutralization: 0.027 µg/mL
[26]
  IC50 (µg/mL), neutralization of pseudovirus: > 50 µg/mL
[27]
  IC50 (µg/mL), pseudovirus neutralization: 2.22 µg/mL
[28]
  IC50 (µg/mL), neutralization of pseudovirus: 31.3 µg/mL
[29]
  IC50 (µg/mL), pseudovirus neutralization: 0.028 µg/mL
[30]
  IC50 (µg/mL), pseudovirus neutralization: 0.039 µg/mL
[31]
  IC50 (µg/mL), pseudovirus neutralization: 0.022 µg/mL
[32]
  IC50 (µg/mL), neutralization of pseudovirus: > 50 µg/mL
[33]
  IC50 (µg/mL), pseudovirus neutralization: 19.1 µg/mL
[34]
  IC50 (µg/mL), pseudovirus neutralization: 2 µg/mL
[35]
  IC50 (µg/mL), pseudovirus neutralization: 14 µg/mL
[36]
  IC50 (µg/mL), pseudovirus neutralization: > 50 µg/mL
[37]
  IC50 (µg/mL), neutralization of pseudovirus: 0.079 µg/mL
[38]
  IC50 (µg/mL), pseudovirus neutralization: 0.032 µg/mL
[39]
  IC50 (µg/mL), pseudovirus neutralization: > 50 µg/mL
[40]
  IC50 (µg/mL), pseudovirus neutralization: 32.6 µg/mL
[41]
  IC50 (µg/mL), pseudovirus neutralization: 0.006 µg/mL
[42]
  IC50 (µg/mL), pseudovirus neutralization: 0.102 µg/mL
[43]
  IC50 (µg/mL), pseudovirus neutralization: > 50 µg/mL
[44]
  IC50 (µg/mL), neutralization of pseudovirus: > 50 µg/mL

## PGT-121 (antibody)
[1]
  IC50 (µg/mL), pseudovirus neutralization: 0.009 µg/mL
[2]
  IC50 (µg/mL), neutralization of pseudovirus: 0.02 µg/mL
[3]
  IC50 (µg/mL), pseudovirus neutralization: 0.002 µg/mL
[4]
  IC50 (µg/mL), neutralization of pseudovirus: 0.009 µg/mL
[5]
  IC50 (µg/mL), pseudovirus neutralization: 0.196 µg/mL
[6]
  IC50 (µg/mL), pseudovirus neutralization: 46.8 µg/mL
[7]
  IC50 (µg/mL), pseudovirus neutralization: 0.015 µg/mL
[8]
  IC50 (µg/mL), neutralization of pseudovirus: 0.004 µg/mL
[9]
  IC50 (µg/mL), neutralization of pseudovirus: 3.99 µg/mL
[10]
  IC50 (µg/mL), neutralization of pseudovirus: > 50 µg/mL
[11]
  IC50 (µg/mL), pseudovirus neutralization: 0.011 µg/mL
[13]
  IC50 (µg/mL), neutralization of pseudovirus: 0.004 µg/mL
[14]
  IC50 (µg/mL), pseudovirus neutralization: > 50 µg/mL
[15]
  IC50 (µg/mL), pseudovirus neutralization: 0.013 µg/mL
[16]
  IC50 (µg/mL), pseudovirus neutralization: 25.1 µg/mL
[17]
  IC50 (µg/mL), neutralization of pseudovirus: 0.011 µg/mL
[19]
  IC50 (µg/mL), pseudovirus neutralization: 0.017 µg/mL
[20]
  IC50 (µg/mL), neutralization of pseudovirus: 0.115 µg/mL
[21]
  IC50 (µg/mL), neutralization of pseudovirus: 0.124 µg/mL
[22]
  IC50 (µg/mL), neutralization of pseudovirus: 0.014 µg/mL
[23]
  IC50 (µg/mL), pseudovirus neutralization: 0.017 µg/mL
[24]
  IC50 (µg/mL), neutralization of pseudovirus: 0.014 µg/mL
[25]
  IC50 (µg/mL), pseudovirus neutralization: 0.015 µg/mL
[26]
  IC50 (µg/mL), neutralization of pseudovirus: > 50 µg/mL
[27]
  IC50 (µg/mL), pseudovirus neutralization: 0.472 µg/mL
[28]
  IC50 (µg/mL), neutralization of pseudovirus: 3.17 µg/mL
[29]
  IC50 (µg/mL), pseudovirus neutralization: 0.012 µg/mL
[30]
  IC50 (µg/mL), pseudovirus neutralization: 0.011 µg/mL
[31]
  IC50 (µg/mL), pseudovirus neutralization: 0.019 µg/mL
[32]
  IC50 (µg/mL), neutralization of pseudovirus: > 50 µg/mL
[33]
  IC50 (µg/mL), pseudovirus neutralization: 17.5 µg/mL
[34]
  IC50 (µg/mL), pseudovirus neutralization: 0.123 µg/mL
[35]
  IC50 (µg/mL), pseudovirus neutralization: > 50 µg/mL
[36]
  IC50 (µg/mL), pseudovirus neutralization: 26.9 µg/mL
[37]
  IC50 (µg/mL), neutralization of pseudovirus: 0.063 µg/mL
[38]
  IC50 (µg/mL), pseudovirus neutralization: 0.007 µg/mL
[39]
  IC50 (µg/mL), pseudovirus neutralization: > 50 µg/mL
[40]
  IC50 (µg/mL), pseudovirus neutralization: 7.23 µg/mL
[41]
  IC50 (µg/mL), pseudovirus neutralization: 0.002 µg/mL
[42]
  IC50 (µg/mL), pseudovirus neutralization: 0.052 µg/mL
[43]
  IC50 (µg/mL), pseudovirus neutralization: > 50 µg/mL
[44]
  IC50 (µg/mL), neutralization of pseudovirus: > 50 µg/mL
